Reference: paper PMC4432644, “Molecular mechanism for USP7-mediated DNMT1 stabilization by acetylation” (Nature Communications, 2015)
One block for each binder: values may come before it.

Key:
Settings in all cases: both partners purified
[1] = target: T1, DNMT1^2KQ (recombinant, residues 600–1,600) (human, UniProt P26358 600-1600, K1111 to Glutamine | K1113 to Glutamine); experiment: pull-down; GST–USP7 proteins incubated with DNMT1 proteins 2 h at 4 °C in 25 mM HEPES pH 7.4, 150 mM NaCl, 5% glycerol, 0.05% Triton X-100, 1 mM DTT, then held on glutathione resin; SDS–PAGE, Coomassie
T1 construct: human DNMT1, residues 600-1,600 (DNMT1 if not specified); source: E. coli Rosetta (DE3), purified
T1 sequence (P26358 other isoform, or with tags, fused parts or gaps with the stated changes): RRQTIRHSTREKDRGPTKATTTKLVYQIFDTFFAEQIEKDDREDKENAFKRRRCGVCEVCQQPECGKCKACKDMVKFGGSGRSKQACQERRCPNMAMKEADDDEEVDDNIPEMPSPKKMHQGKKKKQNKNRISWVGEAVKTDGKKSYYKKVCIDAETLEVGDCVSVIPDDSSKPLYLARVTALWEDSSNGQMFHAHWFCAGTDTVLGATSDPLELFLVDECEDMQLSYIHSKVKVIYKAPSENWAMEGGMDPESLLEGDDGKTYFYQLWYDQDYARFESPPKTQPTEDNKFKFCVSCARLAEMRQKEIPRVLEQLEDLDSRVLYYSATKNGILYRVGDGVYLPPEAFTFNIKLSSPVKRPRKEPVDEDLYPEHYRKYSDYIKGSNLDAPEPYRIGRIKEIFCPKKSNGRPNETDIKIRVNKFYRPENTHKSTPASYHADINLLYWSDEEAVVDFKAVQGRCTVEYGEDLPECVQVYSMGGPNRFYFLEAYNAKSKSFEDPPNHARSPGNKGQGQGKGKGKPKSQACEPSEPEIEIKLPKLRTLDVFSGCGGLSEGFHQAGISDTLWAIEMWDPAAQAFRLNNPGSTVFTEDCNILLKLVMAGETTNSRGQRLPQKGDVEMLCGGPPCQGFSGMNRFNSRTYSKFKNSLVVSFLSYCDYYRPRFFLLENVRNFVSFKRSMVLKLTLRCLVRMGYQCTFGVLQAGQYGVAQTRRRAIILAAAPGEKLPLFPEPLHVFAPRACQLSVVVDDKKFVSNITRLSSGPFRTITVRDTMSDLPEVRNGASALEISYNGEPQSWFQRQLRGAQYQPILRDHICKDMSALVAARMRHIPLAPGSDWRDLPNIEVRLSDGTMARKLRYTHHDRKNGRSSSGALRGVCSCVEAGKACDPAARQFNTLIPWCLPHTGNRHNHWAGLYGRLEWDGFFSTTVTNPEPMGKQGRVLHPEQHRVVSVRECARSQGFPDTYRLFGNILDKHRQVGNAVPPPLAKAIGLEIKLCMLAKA

[2] = target: T2, DNMT1^4KR (recombinant, residues 600–1,600) (human, UniProt P26358 600-1600, K1111 to Arginine | K1113 to Arginine | K1115 to Arginine | K1117 to Arginine); experiment: as above
T2 construct: human DNMT1, residues 600-1,600 (DNMT1 if not specified); source: E. coli Rosetta (DE3), purified
T2 sequence (P26358 other isoform, or with tags, fused parts or gaps with the stated changes): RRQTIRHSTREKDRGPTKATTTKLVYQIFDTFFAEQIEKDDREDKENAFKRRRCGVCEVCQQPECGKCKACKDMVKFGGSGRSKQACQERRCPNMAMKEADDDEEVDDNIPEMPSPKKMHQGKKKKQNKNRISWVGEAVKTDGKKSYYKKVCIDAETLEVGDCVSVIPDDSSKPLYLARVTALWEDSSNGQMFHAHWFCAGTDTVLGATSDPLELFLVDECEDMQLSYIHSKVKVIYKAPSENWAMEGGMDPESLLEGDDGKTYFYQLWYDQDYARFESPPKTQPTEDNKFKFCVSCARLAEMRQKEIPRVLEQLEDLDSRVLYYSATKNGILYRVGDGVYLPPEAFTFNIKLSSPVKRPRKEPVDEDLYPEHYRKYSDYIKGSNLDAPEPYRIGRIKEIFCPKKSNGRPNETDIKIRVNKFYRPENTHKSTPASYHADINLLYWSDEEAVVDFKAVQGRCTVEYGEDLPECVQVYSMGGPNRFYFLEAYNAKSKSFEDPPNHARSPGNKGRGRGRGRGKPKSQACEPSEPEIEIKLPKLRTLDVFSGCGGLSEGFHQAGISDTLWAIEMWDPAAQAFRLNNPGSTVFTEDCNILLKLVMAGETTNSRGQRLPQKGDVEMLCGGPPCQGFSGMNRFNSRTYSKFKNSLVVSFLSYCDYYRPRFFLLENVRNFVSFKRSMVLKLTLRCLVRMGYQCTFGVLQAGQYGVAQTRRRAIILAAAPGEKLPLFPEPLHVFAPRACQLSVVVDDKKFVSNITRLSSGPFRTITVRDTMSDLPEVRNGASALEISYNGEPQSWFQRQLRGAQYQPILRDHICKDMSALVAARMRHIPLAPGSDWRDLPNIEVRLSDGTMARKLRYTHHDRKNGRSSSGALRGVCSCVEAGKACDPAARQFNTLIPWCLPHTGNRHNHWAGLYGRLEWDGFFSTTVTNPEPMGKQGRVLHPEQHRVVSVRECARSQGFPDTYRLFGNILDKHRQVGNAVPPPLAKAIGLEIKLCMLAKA

[3] = target: T3, DNMT1^2KR (recombinant, residues 600–1,600) (human, UniProt P26358 600-1600, K1111 to Arginine | K1113 to Arginine); experiment: as above
T3 construct: human DNMT1, residues 600-1,600 (DNMT1 if not specified); source: E. coli Rosetta (DE3), purified
T3 sequence (P26358 other isoform, or with tags, fused parts or gaps with the stated changes): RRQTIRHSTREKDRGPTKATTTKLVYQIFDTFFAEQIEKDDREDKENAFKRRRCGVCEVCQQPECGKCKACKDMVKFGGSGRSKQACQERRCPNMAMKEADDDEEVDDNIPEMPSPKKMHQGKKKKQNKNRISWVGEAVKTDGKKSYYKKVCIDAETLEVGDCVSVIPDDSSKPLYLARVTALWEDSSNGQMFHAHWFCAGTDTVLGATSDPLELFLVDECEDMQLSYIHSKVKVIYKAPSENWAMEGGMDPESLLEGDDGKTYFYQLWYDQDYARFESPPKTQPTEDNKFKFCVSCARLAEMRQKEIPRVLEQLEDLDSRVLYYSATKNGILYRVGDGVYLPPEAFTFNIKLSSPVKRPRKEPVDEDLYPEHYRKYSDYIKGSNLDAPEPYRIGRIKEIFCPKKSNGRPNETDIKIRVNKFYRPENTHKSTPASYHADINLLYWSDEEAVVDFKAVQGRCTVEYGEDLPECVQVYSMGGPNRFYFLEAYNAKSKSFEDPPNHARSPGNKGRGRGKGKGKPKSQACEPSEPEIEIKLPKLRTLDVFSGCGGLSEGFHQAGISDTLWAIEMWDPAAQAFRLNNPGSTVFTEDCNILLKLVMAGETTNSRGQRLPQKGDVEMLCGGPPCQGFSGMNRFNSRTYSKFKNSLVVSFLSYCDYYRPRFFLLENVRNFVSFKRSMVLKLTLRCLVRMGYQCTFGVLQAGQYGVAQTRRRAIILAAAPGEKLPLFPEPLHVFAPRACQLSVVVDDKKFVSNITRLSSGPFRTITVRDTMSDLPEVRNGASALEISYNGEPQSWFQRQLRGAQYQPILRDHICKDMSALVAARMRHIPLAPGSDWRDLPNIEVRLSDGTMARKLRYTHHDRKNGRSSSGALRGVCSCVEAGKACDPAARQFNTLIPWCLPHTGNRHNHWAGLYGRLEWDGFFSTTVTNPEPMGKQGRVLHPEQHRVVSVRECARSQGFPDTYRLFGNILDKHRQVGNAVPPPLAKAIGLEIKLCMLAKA

[4] = target: T4, DNMT1 (residues 600–1,600) (human, UniProt P26358 600-1600); experiment: ITC; 0.05 mM DNMT1 (600–1,600) titrated with 0.5 mM USP7 (560–1,102); iTC200; 18 °C; 10 mM HEPES pH 8.0, 300 mM NaCl
T4 construct: human DNMT1, residues 600-1,600; Modified pET-28a plasmid; also called WT DNMT1 (residues 600–1,600); source: E. coli Rosetta (DE3), purified (Ni-NTA, on-column cleavage, anion exchange, SEC)
T4 sequence (P26358 600-1600): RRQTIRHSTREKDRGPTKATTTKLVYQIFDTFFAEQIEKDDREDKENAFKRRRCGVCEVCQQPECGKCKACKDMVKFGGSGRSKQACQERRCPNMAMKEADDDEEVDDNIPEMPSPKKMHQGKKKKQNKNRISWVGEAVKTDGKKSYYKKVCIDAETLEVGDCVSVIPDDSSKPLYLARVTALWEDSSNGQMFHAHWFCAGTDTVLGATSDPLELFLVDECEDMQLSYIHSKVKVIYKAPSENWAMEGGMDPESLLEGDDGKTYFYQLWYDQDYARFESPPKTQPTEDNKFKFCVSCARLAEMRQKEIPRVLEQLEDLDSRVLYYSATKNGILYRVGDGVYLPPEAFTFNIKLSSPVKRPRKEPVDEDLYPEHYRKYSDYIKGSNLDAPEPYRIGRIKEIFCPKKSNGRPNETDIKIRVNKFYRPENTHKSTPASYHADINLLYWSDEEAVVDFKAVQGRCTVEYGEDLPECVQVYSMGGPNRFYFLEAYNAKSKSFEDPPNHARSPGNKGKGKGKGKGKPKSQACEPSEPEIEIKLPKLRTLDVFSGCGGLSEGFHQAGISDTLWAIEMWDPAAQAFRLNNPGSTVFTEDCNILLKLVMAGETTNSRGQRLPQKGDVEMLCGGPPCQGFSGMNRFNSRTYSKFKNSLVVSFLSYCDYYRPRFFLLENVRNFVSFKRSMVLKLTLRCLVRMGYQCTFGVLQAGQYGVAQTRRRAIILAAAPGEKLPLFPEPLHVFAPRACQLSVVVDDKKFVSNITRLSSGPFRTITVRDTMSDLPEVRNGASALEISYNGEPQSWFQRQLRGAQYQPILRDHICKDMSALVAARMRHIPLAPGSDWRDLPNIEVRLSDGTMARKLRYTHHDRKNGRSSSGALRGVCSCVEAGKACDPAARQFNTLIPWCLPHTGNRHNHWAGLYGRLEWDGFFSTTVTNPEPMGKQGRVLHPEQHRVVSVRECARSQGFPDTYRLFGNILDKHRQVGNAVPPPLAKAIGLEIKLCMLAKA

[5] = target: T4, DNMT1 (residues 600–1,600); experiment: pull-down; GST–USP7 proteins incubated with DNMT1 proteins 2 h at 4 °C in 25 mM HEPES pH 7.4, 150 mM NaCl, 5% glycerol, 0.05% Triton X-100, 1 mM DTT, then held on glutathione resin; SDS–PAGE, Coomassie

binding result [1]: binds | binding result [2]: binds | binding result [3]: binds
B1: GST–TUD^USP7 (tandem UBL domains of USP7, residues 560–1,102) (domain or fragment, human, UniProt Q93009 560-1102, looked up)
chain: EAHLYMQVQIVAEDQFCGHQGNDMYDEEKVKYTVFKVLKNSSLAEFVQSLSQTMGFPQDQIRLWPMQARSNGTKRPAMLDNEADGNKTMIELSDNENPWTIFLETVDPELAASGATLPKFDKDHDVMLFLKMYDPKTRSLNYCGHIYTPISCKIRDLLPVMCDRAGFIQDTSLILYEEVKPNLTERIQDYDVSLDKALDELMDGDIIVFQKDDPENDNSELPTAKEYFRDLYHRVDVIFCDKTIPNDPGFVVTLSNRMNYFQVAKTVAQRLNTDPMLLQFFKSQGYRDGPGNPLRHNYEGTLRDLLQFFKPRQPKKLYYQQLKMKITDFENRRSFKCIWLNSQFREEEITLYPDKHGCVRDLLEECKKAVELGEKASGKLRLLEIVSYKIIGVHQEDELLECLSPATSRTFRIEEIPLDQVDIDKENEMLVTVAHFHKEVFGTFGIPFLLRIHQGEHFREVMKRIQSLLDIQEKEFEKFKFAIVMMGRHQYINEDEYEVNLKDFEPQPGNMSHPRPWLGLDHFNKAPKRSRYTYLEKAIKIHN
notes: Modified pGEX-6P-1 plasmid; also called GST–USP7 (truncation); wild-type GST–TUD^USP7; source: E. coli BL21(DE3), purified

Kd [4]: 600 nM
B2: USP7 (residues 560–1,102), tag removed (domain or fragment, human, UniProt Q93009 560-1102, looked up)
chain: EAHLYMQVQIVAEDQFCGHQGNDMYDEEKVKYTVFKVLKNSSLAEFVQSLSQTMGFPQDQIRLWPMQARSNGTKRPAMLDNEADGNKTMIELSDNENPWTIFLETVDPELAASGATLPKFDKDHDVMLFLKMYDPKTRSLNYCGHIYTPISCKIRDLLPVMCDRAGFIQDTSLILYEEVKPNLTERIQDYDVSLDKALDELMDGDIIVFQKDDPENDNSELPTAKEYFRDLYHRVDVIFCDKTIPNDPGFVVTLSNRMNYFQVAKTVAQRLNTDPMLLQFFKSQGYRDGPGNPLRHNYEGTLRDLLQFFKPRQPKKLYYQQLKMKITDFENRRSFKCIWLNSQFREEEITLYPDKHGCVRDLLEECKKAVELGEKASGKLRLLEIVSYKIIGVHQEDELLECLSPATSRTFRIEEIPLDQVDIDKENEMLVTVAHFHKEVFGTFGIPFLLRIHQGEHFREVMKRIQSLLDIQEKEFEKFKFAIVMMGRHQYINEDEYEVNLKDFEPQPGNMSHPRPWLGLDHFNKAPKRSRYTYLEKAIKIHN
notes: The methods name a modified pGEX-6P-1 plasmid but a Ni-NTA purification with on-column cleavage; also called TUD^USP7; source: E. coli BL21(DE3), purified (Ni-NTA, on-column cleavage, anion exchange, SEC)

binding result [5]: binds
B3: GST–TUD^USP7 E744A (domain or fragment, human, UniProt Q93009 560-1102, looked up)
chain: EAHLYMQVQIVAEDQFCGHQGNDMYDEEKVKYTVFKVLKNSSLAEFVQSLSQTMGFPQDQIRLWPMQARSNGTKRPAMLDNEADGNKTMIELSDNENPWTIFLETVDPELAASGATLPKFDKDHDVMLFLKMYDPKTRSLNYCGHIYTPISCKIRDLLPVMCDRAGFIQDTSLILYEEVKPNLTARIQDYDVSLDKALDELMDGDIIVFQKDDPENDNSELPTAKEYFRDLYHRVDVIFCDKTIPNDPGFVVTLSNRMNYFQVAKTVAQRLNTDPMLLQFFKSQGYRDGPGNPLRHNYEGTLRDLLQFFKPRQPKKLYYQQLKMKITDFENRRSFKCIWLNSQFREEEITLYPDKHGCVRDLLEECKKAVELGEKASGKLRLLEIVSYKIIGVHQEDELLECLSPATSRTFRIEEIPLDQVDIDKENEMLVTVAHFHKEVFGTFGIPFLLRIHQGEHFREVMKRIQSLLDIQEKEFEKFKFAIVMMGRHQYINEDEYEVNLKDFEPQPGNMSHPRPWLGLDHFNKAPKRSRYTYLEKAIKIHN
notes: also called E744A^USP7; source: E. coli BL21(DE3), purified

binding result [5]: binds
B4: GST–TUD^USP7 D762A (domain or fragment, human, UniProt Q93009 560-1102, looked up)
chain: EAHLYMQVQIVAEDQFCGHQGNDMYDEEKVKYTVFKVLKNSSLAEFVQSLSQTMGFPQDQIRLWPMQARSNGTKRPAMLDNEADGNKTMIELSDNENPWTIFLETVDPELAASGATLPKFDKDHDVMLFLKMYDPKTRSLNYCGHIYTPISCKIRDLLPVMCDRAGFIQDTSLILYEEVKPNLTERIQDYDVSLDKALDELMAGDIIVFQKDDPENDNSELPTAKEYFRDLYHRVDVIFCDKTIPNDPGFVVTLSNRMNYFQVAKTVAQRLNTDPMLLQFFKSQGYRDGPGNPLRHNYEGTLRDLLQFFKPRQPKKLYYQQLKMKITDFENRRSFKCIWLNSQFREEEITLYPDKHGCVRDLLEECKKAVELGEKASGKLRLLEIVSYKIIGVHQEDELLECLSPATSRTFRIEEIPLDQVDIDKENEMLVTVAHFHKEVFGTFGIPFLLRIHQGEHFREVMKRIQSLLDIQEKEFEKFKFAIVMMGRHQYINEDEYEVNLKDFEPQPGNMSHPRPWLGLDHFNKAPKRSRYTYLEKAIKIHN
notes: also called D762A^USP7; source: E. coli BL21(DE3), purified
